The record followed here is US20170145086A1 (VISTERRA, published 2017).

Test [1] addresses T1, HA-GCN4 hAPRIL (amino acid residues 105-250) (human, UniProt O75888 105-250).
T1 construct: Bought (R&D Systems); also called HA-tagged GCN4 human APRIL; HA-GCN4-huAPRIL; not shown: N-terminal HA tag; GCN4 isoleucine zipper oligomerization domain
T1 sequence: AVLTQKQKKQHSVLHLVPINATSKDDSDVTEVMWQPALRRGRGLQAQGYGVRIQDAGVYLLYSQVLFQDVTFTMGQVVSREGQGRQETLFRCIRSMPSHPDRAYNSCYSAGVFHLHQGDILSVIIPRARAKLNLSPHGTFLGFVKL
The test is described as follows: indirect ELISA on coated HA-GCN4 human APRIL; EC50 from non-linear regression. The text has this: Purified antibodies were further characterized for APRIL binding, APRIL species cross reactivity (human APRIL vs. mouse APRIL), and receptor blocking activity using TACI-Fc. For binding, an APRIL-based indirect ELISA was used to determine by first approximation the relative affinity of purified anti-APRIL antibodies to either human APRIL or mouse APRIL. ELISA method was as generally described above. […] Blocking and wash steps were completed as described. Binding of anti-APRIL antibodies to APRIL was quantified using an 8 point dilution of test antibody that spanned over a four log scale. Antibody binding to APRIL was detected using a rabbit anti-mouse IgG (H+L)-HRP conjugate (Jackson ImmunoResearch Laboratories). Antibody binding data was analyzed by non-linear regression analysis using a 3 parameter fit to determine max binding and apparent EC₅₀ values. […] Mouse specific antibody Apry-1-1 (Adipogen) was likewise used for quantification of antibody binding to mouse APRIL.

Test [2] concerns the target T1, HA-GCN4 hAPRIL (amino acid residues …). The test is described as follows: blocking ELISA; blocked: human APRIL binding to TACI-Fc.
For test [3], the target named is T2, HA-GCN4 mAPRIL (amino acid residues 96-241) (mouse, UniProt Q9D777 96-241, Assembles as a homotrimer through the GCN4 zipper; one protomer is given.).
T2 construct: Bought (R&D Systems); also called HA-tagged mouse APRIL (R&D Systems); recombinant mouse APRIL; not shown: N-terminal HA tag and GCN4 isoleucine-zipper trimerisation domain, with any linker, of the bought R&D Systems protein
T2 sequence: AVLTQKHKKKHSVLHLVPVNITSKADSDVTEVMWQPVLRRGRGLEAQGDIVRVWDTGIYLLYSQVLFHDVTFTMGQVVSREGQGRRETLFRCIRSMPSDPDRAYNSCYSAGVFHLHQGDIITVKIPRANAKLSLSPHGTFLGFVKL
Nature of the test: indirect ELISA on mouse APRIL; row printed 4504, legend paragraph 738 says 4540.

B1: monoclonal antibody 2218 (antibody, mouse IgG2, V domains shown)
VH: DVQLQESGPGLVKPSQSLSLTCSVTGYSITSGYYWNWIRQFPGNKLEWMGYISYDGYNNYNPSLKNRISITRDTSKNQFFLKLNSVTTEDTATYYCANYYDYEDWYFGVWGTGTTVTVSS
VL: DIVLTQSPASLAMSLGKRATISCRASESVSIIGTNSIHWYQQKPGQPPKLLIYHASNLETGVPARFSGSGSRTDFTLTIDPVEEDDVAIYYCLQSRKIPYTFGGGTKLEIK
In turn, B1 registered an EC50 in test [1] below 0.2 nM.

B2: monoclonal antibody 4540 (antibody, V domains shown)
VH: QVQLQQSGPELVKPGASVKISCKASGYTFADYYINWVKQRPGQGLEWIGWIFPGSGSTYYNEKFKGKATLTVDKSSSTAYMLLSSLTSEDSAVYFCARGDSGRAMDYWGQGTSVTVSS
VL: DIQMTQSPSSLSASLGGKVTITCKASQDINKYIAWYQHKPGKGPRLLIHYTSTLQSGIPSRFSGSGSGRDYSFSISNLEPEDNATYYCLQYDNLLTFGAGTKLELK
notes: mouse-derived
B2: in test [2], the IC50 turned out to be 0.4 nM and the “Relative Activity (normalised to 2419)” value stood at 1.45. In test [3], the EC50 was determined as 0.00151 nM.
